Experimental data taken from PMC10716376, “The assembly of the Mitochondrial Complex I Assembly complex uncovers a redox pathway coordination” (Nature Communications, 2023).

T1: ECSIT_(CTER) (residues 221-431) (human, UniProt Q9BQ95 221-431)
T1 chain: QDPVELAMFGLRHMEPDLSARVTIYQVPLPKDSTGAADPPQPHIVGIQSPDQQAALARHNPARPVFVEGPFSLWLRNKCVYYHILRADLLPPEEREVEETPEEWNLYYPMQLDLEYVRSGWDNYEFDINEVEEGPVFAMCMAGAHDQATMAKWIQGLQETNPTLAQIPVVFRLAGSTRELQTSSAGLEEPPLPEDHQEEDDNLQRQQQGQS

B1: ACAD9WT (mature ACAD9, residues 38-621) (enzyme, human, UniProt Q9H845 38-621, looked up)
chain: AFAKELFLGKIKKKEVFPFPEVSQDELNEINQFLGPVEKFFTEEVDSRKIDQEGKIPDETLEKLKSLGLFGLQVPEEYGGLGFSNTMYSRLGEIISMDGSITVTLAAHQAIGLKGIILAGTEEQKAKYLPKLASGEHIAAFCLTEPASGSDAASIRSRATLSEDKKHYILNGSKVWITNGGLANIFTVFAKTEVVDSDGSVKDKITAFIVERDFGGVTNGKPEDKLGIRGSNTCEVHFENTKIPVENILGEVGDGFKVAMNILNSGRFSMGSVVAGLLKRLIEMTAEYACTRKQFNKRLSEFGLIQEKFALMAQKAYVMESMTYLTAGMLDQPGFPDCSIEAAMVKVFSSEAAWQCVSEALQILGGLGYTRDYPYERILRDTRILLIFEGTNEILRMYIALTGLQHAGRILTTRIHELKQAKVSTVMDTVGRRLRDSLGRTVDLGLTGNHGVVHPSLADSANKFEENTYCFGRTVETLLLRFGKTIMEEQLVLKRVANILINLYGMTAVLSRASRSIRIGLRNHDHEVLLANTFCVEAYLQNLFSLSQLDKYAPENLDEQIKKVSQQILEKRAYICAHPLDRTC
notes: human ACAD9, mature form, residues 38-621; E. coli codon-optimised synthetic gene; Cloned into pET-21d(+); Plasmid details are in Supplementary Data 1; source: E. coli C43 (DE3), purified (HisTrap, dialysed in SEC buffer)

Key:
VLCAD_(ACAD9) (human) = VLCAD_(ACAD9) (human) (UniProt P49748); experiment: mass photometry; ACAD9 (or VLCAD) at 20-50 nM in 25 mM HEPES pH 7.5, 250 mM NaCl, or diluted in 4.8 uM ECSIT solution for complex formation
[1] = target: T1, ECSIT_(CTER) (residues 221-431); experiment: ITC
[2] = target: the molecule itself; experiment: cryo-EM structure; ACAD9WT-ECSIT_(CTER) reconstituted (molar ratio 1:1.25) and purified by gel filtration; 25 mM HEPES, 300 mM NaCl, 1 mM TCEP, pH 7.5; C2 symmetry imposed
[3] = target: the molecule itself; experiment: mass photometry; ACAD9 (or VLCAD) at 20-50 nM in 25 mM HEPES pH 7.5, 250 mM NaCl, or diluted in 4.8 uM ECSIT solution for complex formation
[4] = target: B1; experiment: dynamic light scattering; 278 K, protein at 1-2 mg/ml; complexes reconstituted at molar ratio 1:1.25; details: both partners purified

Row | binding result [4] | Molecule | stoichiometry N [3] | also measured
1 |  | VLCAD_(ACAD9) (from UniProt P49748 72-655) (enzyme) |  | stoichiometry N (VLCAD_(ACAD9) (human)): 2
2 |  | B1 |  | Kd [1]: 1450 nM; stoichiometry N [2]: 2
3 |  | ACAD9_(VLCAD) (enzyme, human, UniProt Q9H845 38-621, looked up, human ACAD9, residues 38-621, residues 401-407 LGGLGYT replaced by the corresponding VLCAD residues 437-443 MGGMGFM; also called ACAD9 mutated to mimic VLCAD; source: E. coli C43 (DE3), purified (HisTrap, dialysed in SEC buffer)) AFAKELFLGKIKKKEVFPFPEVSQDELNEINQFLGPVEKFFTEEVDSRKIDQEGKIPDETLEKLKSLGLFGLQVPEEYGGLGFSNTMYSRLGEIISMDGSITVTLAAHQAIGLKGIILAGTEEQKAKYLPKLASGEHIAAFCLTEPASGSDAASIRSRATLSEDKKHYILNGSKVWITNGGLANIFTVFAKTEVVDSDGSVKDKITAFIVERDFGGVTNGKPEDKLGIRGSNTCEVHFENTKIPVENILGEVGDGFKVAMNILNSGRFSMGSVVAGLLKRLIEMTAEYACTRKQFNKRLSEFGLIQEKFALMAQKAYVMESMTYLTAGMLDQPGFPDCSIEAAMVKVFSSEAAWQCVSEALQIMGGMGFMRDYPYERILRDTRILLIFEGTNEILRMYIALTGLQHAGRILTTRIHELKQAKVSTVMDTVGRRLRDSLGRTVDLGLTGNHGVVHPSLADSANKFEENTYCFGRTVETLLLRFGKTIMEEQLVLKRVANILINLYGMTAVLSRASRSIRIGLRNHDHEVLLANTFCVEAYLQNLFSLSQLDKYAPENLDEQIKKVSQQILEKRAYICAHPLDRTC | 2 | 
4 |  | ACAD9_(S191A) (enzyme, human, UniProt Q9H845 38-621, looked up, human ACAD9, residues 38-621, S191A; One FAD per protomer in the cryo-EM structure; source: E. coli C43 (DE3), purified (HisTrap, dialysed in SEC buffer)) AFAKELFLGKIKKKEVFPFPEVSQDELNEINQFLGPVEKFFTEEVDSRKIDQEGKIPDETLEKLKSLGLFGLQVPEEYGGLGFSNTMYSRLGEIISMDGSITVTLAAHQAIGLKGIILAGTEEQKAKYLPKLASGEHIAAFCLTEPASGSDAAAIRSRATLSEDKKHYILNGSKVWITNGGLANIFTVFAKTEVVDSDGSVKDKITAFIVERDFGGVTNGKPEDKLGIRGSNTCEVHFENTKIPVENILGEVGDGFKVAMNILNSGRFSMGSVVAGLLKRLIEMTAEYACTRKQFNKRLSEFGLIQEKFALMAQKAYVMESMTYLTAGMLDQPGFPDCSIEAAMVKVFSSEAAWQCVSEALQILGGLGYTRDYPYERILRDTRILLIFEGTNEILRMYIALTGLQHAGRILTTRIHELKQAKVSTVMDTVGRRLRDSLGRTVDLGLTGNHGVVHPSLADSANKFEENTYCFGRTVETLLLRFGKTIMEEQLVLKRVANILINLYGMTAVLSRASRSIRIGLRNHDHEVLLANTFCVEAYLQNLFSLSQLDKYAPENLDEQIKKVSQQILEKRAYICAHPLDRTC | 2 | 
5 |  | ACAD9_(A184S/SR194TS) (enzyme, human, UniProt Q9H845 38-621, looked up, human ACAD9, residues 38-621, A184S and SR194TS combined (mimics the VLCAD gatekeeper loop); source: E. coli C43 (DE3), purified (HisTrap, dialysed in SEC buffer)) AFAKELFLGKIKKKEVFPFPEVSQDELNEINQFLGPVEKFFTEEVDSRKIDQEGKIPDETLEKLKSLGLFGLQVPEEYGGLGFSNTMYSRLGEIISMDGSITVTLAAHQAIGLKGIILAGTEEQKAKYLPKLASGEHIAAFCLTEPSSGSDAASIRTSATLSEDKKHYILNGSKVWITNGGLANIFTVFAKTEVVDSDGSVKDKITAFIVERDFGGVTNGKPEDKLGIRGSNTCEVHFENTKIPVENILGEVGDGFKVAMNILNSGRFSMGSVVAGLLKRLIEMTAEYACTRKQFNKRLSEFGLIQEKFALMAQKAYVMESMTYLTAGMLDQPGFPDCSIEAAMVKVFSSEAAWQCVSEALQILGGLGYTRDYPYERILRDTRILLIFEGTNEILRMYIALTGLQHAGRILTTRIHELKQAKVSTVMDTVGRRLRDSLGRTVDLGLTGNHGVVHPSLADSANKFEENTYCFGRTVETLLLRFGKTIMEEQLVLKRVANILINLYGMTAVLSRASRSIRIGLRNHDHEVLLANTFCVEAYLQNLFSLSQLDKYAPENLDEQIKKVSQQILEKRAYICAHPLDRTC | 2 | 
6 |  | VLCADWT (very long chain acyl-CoA dehydrogenase, res. 72-655) (enzyme, human, UniProt P49748 72-655, looked up, human very long-chain acyl-CoA dehydrogenase (VLCAD), residues 72-655; plasmid ACADVL from Addgene #38838; VLCAD-related constructs were cloned into pNIC28-BSA; also called ACADVL; source: E. coli Rosetta 2 (DE3), purified (HisTrap, SEC)) SFAVGMFKGQLTTDQVFPYPSVLNEEQTQFLKELVEPVSRFFEEVNDPAKNDALEMVEETTWQGLKELGAFGLQVPSELGGVGLCNTQYARLVEIVGMHDLGVGITLGAHQSIGFKGILLFGTKAQKEKYLPKLASGETVAAFCLTEPSSGSDAASIRTSAVPSPCGKYYTLNGSKLWISNGGLADIFTVFAKTPVTDPATGAVKEKITAFVVERGFGGITHGPPEKKMGIKASNTAEVFFDGVRVPSENVLGEVGSGFKVAMHILNNGRFGMAAALAGTMRGIIAKAVDHATNRTQFGEKIHNFGLIQEKLARMVMLQYVTESMAYMVSANMDQGATDFQIEAAISKIFGSEAAWKVTDECIQIMGGMGFMKEPGVERVLRDLRIFRIFEGTNDILRLFVALQGCMDKGKELSGLGSALKNPFGNAGLLLGEAGKQLRRRAGLGSGLSLSGLVHPELSRSGELAVRALEQFATVVEAKLIKHKKGIVNEQFLLQRLADGAIDLYAMVVVLSRASRSLSEGHPTAQHEKMLCDTWCIEAAARIREGMAALQSDPWQQELYRNFKSISKALVERGGVVTSNPLGF | 2 | 
7 | binds | ECSIT_(CTER-W324A) (domain or fragment, human, UniProt Q9BQ95 221-431, looked up, human ECSIT, residues 221-431, W324A; also called ECSIT-W324A; ECSIT_(W324A); source: E. coli BL21 Star (DE3), purified (HisTrap, SEC)) QDPVELAMFGLRHMEPDLSARVTIYQVPLPKDSTGAADPPQPHIVGIQSPDQQAALARHNPARPVFVEGPFSLWLRNKCVYYHILRADLLPPEEREVEETPEEANLYYPMQLDLEYVRSGWDNYEFDINEVEEGPVFAMCMAGAHDQATMAKWIQGLQETNPTLAQIPVVFRLAGSTRELQTSSAGLEEPPLPEDHQEEDDNLQRQQQGQS |  | 
8 | binds | ECSIT_(CTER-Y328A) (domain or fragment, human, UniProt Q9BQ95 221-431, looked up, human ECSIT, residues 221-431, Y328A; also called ECSIT_(Y328A); source: E. coli BL21 Star (DE3), purified (HisTrap, SEC)) QDPVELAMFGLRHMEPDLSARVTIYQVPLPKDSTGAADPPQPHIVGIQSPDQQAALARHNPARPVFVEGPFSLWLRNKCVYYHILRADLLPPEEREVEETPEEWNLYAPMQLDLEYVRSGWDNYEFDINEVEEGPVFAMCMAGAHDQATMAKWIQGLQETNPTLAQIPVVFRLAGSTRELQTSSAGLEEPPLPEDHQEEDDNLQRQQQGQS |  | 
9 | binds | ECSIT_(CTER-Y327F) (domain or fragment, human, UniProt Q9BQ95 221-431, looked up, human ECSIT, residues 221-431, Y327F; also called ECSIT_(Y327F); source: E. coli BL21 Star (DE3), purified (HisTrap, SEC)) QDPVELAMFGLRHMEPDLSARVTIYQVPLPKDSTGAADPPQPHIVGIQSPDQQAALARHNPARPVFVEGPFSLWLRNKCVYYHILRADLLPPEEREVEETPEEWNLFYPMQLDLEYVRSGWDNYEFDINEVEEGPVFAMCMAGAHDQATMAKWIQGLQETNPTLAQIPVVFRLAGSTRELQTSSAGLEEPPLPEDHQEEDDNLQRQQQGQS |  | 
10 | binds | ECSIT_(CTER-Y328F) (domain or fragment, human, UniProt Q9BQ95 221-431, looked up, human ECSIT, residues 221-431, Y328F; also called ECSIT_(Y328F); source: E. coli BL21 Star (DE3), purified (HisTrap, SEC)) QDPVELAMFGLRHMEPDLSARVTIYQVPLPKDSTGAADPPQPHIVGIQSPDQQAALARHNPARPVFVEGPFSLWLRNKCVYYHILRADLLPPEEREVEETPEEWNLYFPMQLDLEYVRSGWDNYEFDINEVEEGPVFAMCMAGAHDQATMAKWIQGLQETNPTLAQIPVVFRLAGSTRELQTSSAGLEEPPLPEDHQEEDDNLQRQQQGQS |  | 
11 | binds | ECSIT_(CTER-Y327A) (domain or fragment, human, UniProt Q9BQ95 221-431, looked up, human ECSIT, residues 221-431, Y327A; also called ECSIT_(Y327A); source: E. coli BL21 Star (DE3), purified (HisTrap, SEC)) QDPVELAMFGLRHMEPDLSARVTIYQVPLPKDSTGAADPPQPHIVGIQSPDQQAALARHNPARPVFVEGPFSLWLRNKCVYYHILRADLLPPEEREVEETPEEWNLAYPMQLDLEYVRSGWDNYEFDINEVEEGPVFAMCMAGAHDQATMAKWIQGLQETNPTLAQIPVVFRLAGSTRELQTSSAGLEEPPLPEDHQEEDDNLQRQQQGQS |  | 
